Measurements taken from article PMC10518340, “Secreted LRPAP1 binds and triggers IFNAR1 degradation to facilitate virus evasion from cellular innate immunity” (Signal Transduction and Targeted Therapy, 2023).

B1: alpha-2-macroglobulin (protein, UniProt P01023 24-1474, looked up)
Alpha-2-macroglobulin: SVSGKPQYMVLVPSLLHTETTEKGCVLLSYLNETVTVSASLESVRGNRSLFTDLEAENDVLHCVAFAVPKSSSNEEVMFLTVQVKGPTQEFKKRTTVMVKNEDSLVFVQTDKSIYKPGQTVKFRVVSMDENFHPLNELIPLVYIQDPKGNRIAQWQSFQLEGGLKQFSFPLSSEPFQGSYKVVVQKKSGGRTEHPFTVEEFVLPKFEVQVTVPKIITILEEEMNVSVCGLYTYGKPVPGHVTVSICRKYSDASDCHGEDSQAFCEKFSGQLNSHGCFYQQVKTKVFQLKRKEYEMKLHTEAQIQEEGTVVELTGRQSSEITRTITKLSFVKVDSHFRQGIPFFGQVRLVDGKGVPIPNKVIFIRGNEANYYSNATTDEHGLVQFSINTTNVMGTSLTVRVNYKDRSPCYGYQWVSEEHEEAHHTAYLVFSPSKSFVHLEPMSHELPCGHTQTVQAHYILNGGTLLGLKKLSFYYLIMAKGGIVRTGTHGLLVKQEDMKGHFSISIPVKSDIAPVARLLIYAVLPTGDVIGDSAKYDVENCLANKVDLSFSPSQSLPASHAHLRVTAAPQSVCALRAVDQSVLLMKPDAELSASSVYNLLPEKDLTGFPGPLNDQDNEDCINRHNVYINGITYTPVSSTNEKDMYSFLEDMGLKAFTNSKIRKPKMCPQLQQYEMHGPEGLRVGFYESDVMGRGHARLVHVEEPHTETVRKYFPETWIWDLVVVNSAGVAEVGVTVPDTITEWKAGAFCLSEDAGLGISSTASLRAFQPFFVELTMPYSVIRGEAFTLKATVLNYLPKCIRVSVQLEASPAFLAVPVEKEQAPHCICANGRQTVSWAVTPKSLGNVNFTVSAEALESQELCGTEVPSVPEHGRKDTVIKPLLVEPEGLEKETTFNSLLCPSGGEVSEELSLKLPPNVVEESARASVSVLGDILGSAMQNTQNLLQMPYGCGEQNMVLFAPNIYVLDYLNETQQLTPEIKSKAIGYLNTGYQRQLNYKHYDGSYSTFGERYGRNQGNTWLTAFVLKTFAQARAYIFIDEAHITQALIWLSQRQKDNGCFRSSGSLLNNAIKGGVEDEVTLSAYITIALLEIPLTVTHPVVRNALFCLESAWKTAQEGDHGSHVYTKALLAYAFALAGNQDKRKEVLKSLNEEAVKKDNSVHWERPQKPKAPVGHFYEPQAPSAEVEMTSYVLLAYLTAQPAPTSEDLTSATNIVKWITKQQNAQGGFSSTQDTVVALHALSKYGAATFTRTGKAAQVTIQSSGTFSSKFQVDNNNRLLLQQVSLPELPGEYSMKVTGEGCVYLQTSLKYNILPEKEEFPFALGVQTLPQTCDEPKAHTSFQISLSVSYTGSRSASNMAIVDVKMVSGFIPLKPTVKMLERSNHVSRTEVSSNHVLIYLDKVSNQTLSLFFTVLQDVPVRDLKPAIVKVYDYYETDEFAIAEYNAPCSKDLGNA
B2: lactoferrin (protein, UniProt P02788 20-710, looked up)
Lactotransferrin: GRRRSVQWCAVSQPEATKCFQWQRNMRKVRGPPVSCIKRDSPIQCIQAIAENRADAVTLDGGFIYEAGLAPYKLRPVAAEVYGTERQPRTHYYAVAVVKKGGSFQLNELQGLKSCHTGLRRTAGWNVPIGTLRPFLNWTGPPEPIEAAVARFFSASCVPGADKGQFPNLCRLCAGTGENKCAFSSQEPYFSYSGAFKCLRDGAGDVAFIRESTVFEDLSDEAERDEYELLCPDNTRKPVDKFKDCHLARVPSHAVVARSVNGKEDAIWNLLRQAQEKFGKDKSPKFQLFGSPSGQKDLLFKDSAIGFSRVPPRIDSGLYLGSGYFTAIQNLRKSEEEVAARRARVVWCAVGEQELRKCNQWSGLSEGSVTCSSASTTEDCIALVLKGEADAMSLDGGYVYTAGKCGLVPVLAENYKSQQSSDPDPNCVDRPVEGYLAVAVVRRSDTSLTWNSVKGKKSCHTAVDRTAGWNIPMGLLFNQTGSCKFDEYFSQSCAPGSDPRSNLCALCIGDEQGENKCVPNSNERYYGYTGAFRCLAENAGDVAFVKDVTVLQNTDGNNNEAWAKDLKLADFALLCLDGKRKPVTEARSCHLAMAPNHAVVSRMDKVERLKQVLLHQQAKFGRNGSDCPDKFCLFQSETKNLLFNDNTECLARLHGKTTYEKYLGPQYVAGITNLKKCSTSPLLEACEFLRK

Key:
[1] = test system: HSV-1; experiment: HSV-1 infection of RD cells (viral DNA, TCID50, viral protein, CPE); settings: α2M 20 nM, added 3 h post infection MOI 10, 21 h
[2] = test system: HCoV-OC43; experiment: HCoV-OC43 infection of RD cells (viral RNA, TCID50, CPE); settings: α2M 20 nM pre-treatment 1 h, MOI 1, 72 h
[3] = test system: DNA and RNA viruses; experiment: Antiviral effect against DNA and RNA viruses (summary); type: cell-based; settings: dosages within the biosafety range (<1.5 mg/100 ml)
Experimental: Fig. 6 Inhibition of extracellular LRPAP1 reinforces the host cell’s innate immunity against multiple viruses’ infection. a–c RD cells were transfected with scramble siRNA or siLRPAP1 for 24 h. Then the cells were infected with HCoV-OC43 at an MOI of 1 for 72 h or HSV-1 at the indicated MOI for 24 h. Viral RNA level of HCoV-OC43 was analysed by RT-qPCR (a). Viral titer of HCoV-OC43 was measured by TCID50 assay (b). The relative viral DNA level of HSV-1 was analysed by RT-qPCR (c). d Immunoblots of lysates in HepAD38 cells transfected with scramble siRNA or siLRPAP1 for 48 h. e RD cells were transfected with scramble siRNA or siLRPAP1-1/-2 (si-1, si-2) for 24 h. Then the cells were infected with ZIKV at an MOI of 1 for 24 h. Viral RNA level of ZIKV was analysed by RT-qPCR. f, g The inhibitory effect of anti-LRPAP1 for HSV-1 infection. […] Densitometric analysis of VP1 levels in Fig. 6(i) was quantified and normalized with GAPDH using ImageJ (j). Densitometric analysis of HSV Envelope levels in Fig. 6(k) was quantified and normalized with GAPDH using ImageJ (l). m The schematic diagram of virus circumventing type I IFN signaling through LRPAP1.
a, The effect of siLRPAP1 on the infection of HCoV-OC43. […] Viral RNA level of HCoV-OC43 was analysed by RT-qPCR. b, RD cells were transfected with scramble siRNA or siLRPAP1 for 24 h, and cells were then inoculated with HCoV-OC43 at an MOI of 1 for 72 h. […]

[4] = test system: EV71; experiment: EV71 infection of RD cells (viral RNA, titer, viral protein, CPE); settings: α2M 20 nM, added 3 h post infection MOI 10, 6 h
[5] = test system: IFNAR1; experiment: IFNAR1 protein level, immunoblot, HEK-293T cells; type: cell-based, human; settings: HEK-293T, rLRPAP1 200 nM, α2M 20 nM, 1 h
[6] = test system: IFNAR1; experiment: IFNAR1 protein level, immunoblot / immunofluorescence, RD cells; type: cell-based; settings: EV71 or HSV-1 MOI 10; α2M 20 nM, LF 400 nM
[7] = test system: HBV; experiment: HBV level in HepAD38 cells, immunoblot; type: cell-based; settings: α2M 20 nM, 24 h
[8] = test system: IFNAR1; experiment: IFNAR1 protein level, HepAD38 cells, immunoblot; type: cell-based; settings: siRNA or overexpression 48 h; LF 400 nM 24 h

Molecule | HSV-1 propagation (Envelope) [1] | HCoV-OC43 propagation [2] | antiviral effect [3] | EV71 propagation (VP1) [4] | IFNAR1 level in cells treated with rLRPAP1 [5] | IFNAR1 level under viral infections [6] | HBV propagation (HBc) [7] | IFNAR1 expression in HepAD38 cells [8]
B1 | significantly inhibited both DNA and RNA virus propagation | significantly inhibited both DNA and RNA virus propagation | promising antiviral effects | significantly inhibited both DNA and RNA virus propagation | markedly upregulated IFNAR1 | markedly upregulated IFNAR1 | significantly inhibited both DNA and RNA virus propagation | 
B2 |  |  |  |  |  | but not LF |  | but not LF
